In PMC9118860:

Target: MTS-LOV2^V416L (membrane-anchored Light-oxygen-voltage-sensing domain 2, V416L variant)

## Zdk1-N1ICD (Zdark 1 fused to the human NOTCH1 intracellular domain) (designed binder)
  12xCSL-Luc luciferase reporter (RLU) in HEK293T cells, 48 h after blue light activation (0.05-s pulses for 1, 3 and 12 h), against LOV2^WT: 5 fold
